Experimental data reported in patent publication US20160369002A1 (INNATE PHARMA, published 2016).
Values belong to the binder of their own block, whether it stands above or below them.

Legend:
[1] = target: T1, Human NKp46 recombinant protein (human, UniProt O76036 22-258); test: SPR (Biacore T100), bispecific captured on Protein-A chip, soluble recombinant human NKp46
T1 construct: also called recombinant human NKp46 proteins
Procedure: SPR measurements were performed on a Biacore T100 apparatus (Biacore GE Healthcare) at 25° C. In all Biacore experiments HBS-EP+ (Biacore GE Healthcare) and NaOH 10 mM served as running buffer and regeneration buffer respectively. Sensorgrams were analyzed with Biacore T100 Evaluation software. Protein-A was purchased from (GE Healthcare). Human NKp46 recombinant proteins were cloned, produced and purified at Innate Pharma.
(§1) The chip surface was activated with EDC/NHS (N-ethyl-N′-(3-dimethylaminopropyl) carbodiimidehydrochloride and N-hydroxysuccinimide (Biacore GE Healthcare)). Protein-A was diluted to 10 μg/ml in coupling buffer (10 mM acetate, pH 5.6) and injected until the appropriate immobilization level was reached (i.e. 2000 RU). Deactivation of the remaining activated groups was performed using 100 mM ethanolamine pH 8 (Biacore GE Healthcare).
Seven serial dilutions of human NKp46 recombinant proteins, ranging from 6.25 to 400 nM were sequentially injected over the captured Bi-Specific antibodies and allowed to dissociate for 10 min before regeneration. The entire sensorgram sets were fitted using the 1:1 kinetic binding model.

Human CD64 [2] = target: T2, Human CD64 (human, UniProt P12314 16-288, limits assumed); test: SPR (Biacore T100), bispecific immobilised on CM5 chip, soluble CD64 0.7-60 nM, 1:1 kinetic model
T2 construct: also called FcγRI
Procedure: (§2) SPR measurements were performed on a Biacore T100 apparatus (Biacore GE Healthcare) at 25° C. In all Biacore experiments HBS-EP+ (Biacore GE Healthcare) and 10 mM NaOH, 500 mM NaCl served as running buffer and regeneration buffer respectively. Sensorgrams were analyzed with Biacore T100 Evaluation software. Recombinant human FcR's (CD64, CD32a, CD32b, CD16a and CD16b) were cloned, produced and purified.
as §1, with “Bispecific antibodies were” for “Protein-A was”, “[…]” for “μg/ml”, “800 to 900” for “2000”
(§3) Monovalent affinity study was assessed following a classical kinetic wizard (as recommended by the manufacturer). Serial dilutions of soluble analytes (FcRs) ranging from 0.7 to 60 nM for CD64 and from 60 to 5000 nM for all the other FcRs were injected over the immobilized bispecific antibodies and allowed to dissociate for 10 min before regeneration. The entire sensorgram sets were fitted using the 1:1 kinetic binding model for CD64 and with the Steady State Affinity model for all the other FcRs.

Human CD32a [3] = target: T3, Human CD32a (human, UniProt P12318 36-218, limits assumed); test: SPR (Biacore T100), bispecific immobilised on CM5 chip, soluble FcR 60-5000 nM, Steady State Affinity model
T3 construct: also called FcγRIIA
T3 sequence (looked up): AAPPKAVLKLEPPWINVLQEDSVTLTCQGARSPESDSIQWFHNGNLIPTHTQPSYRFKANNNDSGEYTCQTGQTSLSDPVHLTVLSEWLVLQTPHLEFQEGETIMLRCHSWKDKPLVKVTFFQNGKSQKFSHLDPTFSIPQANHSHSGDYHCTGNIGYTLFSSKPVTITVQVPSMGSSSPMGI
Procedure: as §2
as §1, with “Bispecific antibodies were” for “Protein-A was”, “[…]” for “μg/ml”, “800 to 900” for “2000”
as §3

Human CD32b [4] = target: T4, Human CD32b (human, UniProt P31994 46-217, limits assumed); test: as above
T4 construct: also called FcγRIIB
T4 sequence (looked up): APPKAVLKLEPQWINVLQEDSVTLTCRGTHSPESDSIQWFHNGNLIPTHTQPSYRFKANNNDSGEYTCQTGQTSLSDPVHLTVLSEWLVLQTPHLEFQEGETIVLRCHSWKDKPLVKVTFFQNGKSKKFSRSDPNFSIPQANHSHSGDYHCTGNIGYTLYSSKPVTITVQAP
Procedure: as §2
as §1, with “Bispecific antibodies were” for “Protein-A was”, “[…]” for “μg/ml”, “800 to 900” for “2000”
as §3

Human CD16a [5] = target: T5, Human CD16a (human, UniProt P08637 17-208); test: as above
T5 construct: also called FcγRIIIa
Procedure: as §2
as §1, with “Bispecific antibodies were” for “Protein-A was”, “[…]” for “μg/ml”, “800 to 900” for “2000”
as §3

Human CD16b [6] = target: T6, Human CD16b (human, UniProt O75015 17-200); test: as above
T6 construct: also called FcγRIIIb
Procedure: as §2
as §1, with “Bispecific antibodies were” for “Protein-A was”, “[…]” for “μg/ml”, “800 to 900” for “2000”
as §3

Human CD64 [7] = target: T2, Human CD64; test: SPR (Biacore T100), bispecific immobilised on CM5 chip, soluble FcR
Procedure: as §2
as §1, with “Bispecific antibodies were” for “Protein-A was”, “[…]” for “μg/ml”, “800 to 900” for “2000”
as §3

Human CD32a [8] = target: T3, Human CD32a; test: as above
Procedure: as §2
as §1, with “Bispecific antibodies were” for “Protein-A was”, “[…]” for “μg/ml”, “800 to 900” for “2000”
as §3

Human CD32b [9] = target: T4, Human CD32b; test: as above
Procedure: as §2
as §1, with “Bispecific antibodies were” for “Protein-A was”, “[…]” for “μg/ml”, “800 to 900” for “2000”
as §3

Human CD16a [10] = target: T5, Human CD16a; test: as above
Procedure: as §2
as §1, with “Bispecific antibodies were” for “Protein-A was”, “[…]” for “μg/ml”, “800 to 900” for “2000”
as §3

Human CD16b [11] = target: T6, Human CD16b; test: as above
Procedure: as §2
as §1, with “Bispecific antibodies were” for “Protein-A was”, “[…]” for “μg/ml”, “800 to 900” for “2000”
as §3

T5 sequence (P08637 17-208 limits assumed): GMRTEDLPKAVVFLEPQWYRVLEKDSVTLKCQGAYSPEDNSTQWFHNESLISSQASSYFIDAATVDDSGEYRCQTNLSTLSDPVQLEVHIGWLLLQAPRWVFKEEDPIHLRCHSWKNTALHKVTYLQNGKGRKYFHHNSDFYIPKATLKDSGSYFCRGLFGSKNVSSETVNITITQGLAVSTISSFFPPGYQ
T2 sequence (P12314 16-288 limits assumed): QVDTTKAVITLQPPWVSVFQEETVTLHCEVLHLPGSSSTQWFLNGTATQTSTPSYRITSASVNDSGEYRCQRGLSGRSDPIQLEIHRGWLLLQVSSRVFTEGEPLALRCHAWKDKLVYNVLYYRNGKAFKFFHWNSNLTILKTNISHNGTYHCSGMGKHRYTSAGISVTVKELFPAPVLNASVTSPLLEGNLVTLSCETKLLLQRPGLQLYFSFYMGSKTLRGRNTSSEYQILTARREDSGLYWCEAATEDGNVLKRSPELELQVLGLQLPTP
T6 sequence (O75015 17-200 limits assumed): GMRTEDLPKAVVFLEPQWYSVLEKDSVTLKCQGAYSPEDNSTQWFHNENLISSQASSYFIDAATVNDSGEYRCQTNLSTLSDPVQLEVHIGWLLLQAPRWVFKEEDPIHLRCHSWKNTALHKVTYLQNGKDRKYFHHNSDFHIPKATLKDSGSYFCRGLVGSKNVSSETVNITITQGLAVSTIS
T1 sequence (O76036 22-258 Q82K limits assumed): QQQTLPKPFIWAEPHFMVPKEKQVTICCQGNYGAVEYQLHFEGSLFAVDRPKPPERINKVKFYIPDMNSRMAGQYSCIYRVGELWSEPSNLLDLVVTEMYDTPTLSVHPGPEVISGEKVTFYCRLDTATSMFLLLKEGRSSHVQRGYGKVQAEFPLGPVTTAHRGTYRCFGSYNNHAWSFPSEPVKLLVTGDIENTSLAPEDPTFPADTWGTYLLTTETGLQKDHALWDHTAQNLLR

binding result [1]: no binding
B1: CD19-F1-NKp46-6 (bispecific antibody)
chain: DIQLTQSPASLAVSLGQRATISCKASQSVDYDGDSYLNWYQQIPGQPPKLLIYDASNLVSGIPPRFSGSGSGTDFTLNIHPVEKVDAATYHCQQSTEDPWTFGGGTKLEIKGGGGSGGGGSGGGGSQVQLQQSGAELVRPGSSVKISCKASGYAFSSYWMNWVKQRPGQGLEWIGQIWPGDGDTNYNGKFKGKATLTADESSSTAYMQLSSLASEDSAVYFCARRETTTVGRYYYAMDYWGQGTTVTVSSGGGSSAPELLGGPSVFLFPPKPKDTLMISRTPEVTCVVVDVSHEDPEVKFNWYVDGVEVHNAKTKPREEQYNSTYRVVSVLTVLHQDWLNGKEYKCKVSNKALPAPIEKTISKAKGQPREPQVYTKPPSREEMTKNQVSLSCLVKGFYPSDIAVEWESNGQPENNYKTTVPVLDSDGSFRLASYLTVDKSRWQQGNVFSCSVMHEALHNHYTQKSLSLSPGSTGSQVQLQQPGSVLVRPGASVKLSCKASGYTFTSSWMHWAKQRPGQGLEWIGHIHPNSGISNYNEKFKGKATLTVDTSSSTAYVDLSSLTSEDSAVYYCARGGRFDDWGAGTTVTVSSVEGGSGGSGGSGGSGGVDDIVMTQSPATLSVTPGDRVSLSCRASQSISDYLHWYQQKSHESPRLLIKYASQSISGIPSRFSGSGSGSDFTLSINSVEPEDVGVYYCQNGHSFLMYTFGGGTKLEIK
notes: Single chain F1 format, complete mature protein

Kd (Human CD64 [2]): 0.0007 µM
Kd (Human CD32a [3]): 0.846 µM
Kd (Human CD32b [4]): 1.85 µM
Kd (Human CD16a [5]): 1.1 µM
Kd (Human CD16b [6]): 2.43 µM
B2: CD19-F5-NKp46-3 (bispecific antibody, human IgG1, kappa)
chain 1: not shown
chain 2: not shown
chain 3: DIVMTQSPATLSVTPGDRVSLSCRASQSISDYLHWYQQKSHESPRLLIKYASQSISGIPSRFSGSGSGSDFTLSINSVEPEDVGVYYCQNGHSFPLTFGAGTKLELKASTKGPSVFPLAPSSKSTSGGTAALGCLVKDYFPEPVTVSWNSGALTSGVHTFPAVLQSSGLYSLSSVVTVPSSSLGTQTYICNVNHKPSNTKVDKRVEPKSCDKTH

binding result (Human CD64 [7]): no binding (tested: 0.7 to 60 nM)
binding result (Human CD32a [8]): no binding (tested: 60 to 5000 nM)
binding result (Human CD32b [9]): no binding (tested: 60 to 5000 nM)
binding result (Human CD16a [10]): no binding (tested: 60 to 5000 nM)
binding result (Human CD16b [11]): no binding (tested: 60 to 5000 nM)
B3: CD19-F6-NKp46-3 (bispecific antibody, human IgG1, kappa)
chain 1: not shown
chain 2: not shown
chain 3: DIVMTQSPATLSVTPGDRVSLSCRASQSISDYLHWYQQKSHESPRLLIKYASQSISGIPSRFSGSGSGSDFTLSINSVEPEDVGVYYCQNGHSFPLTFGAGTKLELKASTKGPSVFPLAPSSKSTSGGTAALGCLVKDYFPEPVTVSWNSGALTSGVHTFPAVLQSSGLYSLSSVVTVPSSSLGTQTYICNVNHKPSNTKVDKRVEPKSCDKTH
